Measurements published in paper PMC11629876.

Legend:
Assay in all cases: ELISA; dose response: host component coated, recombinant protein added at increasing concentrations, 2 h 37°C; detected with mouse antiserum; KD by non-linear regression, one site-specific binding (GraphPad Prism)
[1] = target: plasminogen (human plasma) (human)
[2] = target: plasma fibronectin (human plasma) (human)
integrin αVβ6 = integrin αVβ6 (UniProt P06756)
integrin αVβ1 = integrin αVβ1 (UniProt P06756)
[3] = target: cellular fibronectin (human foreskin fibroblasts) (human)
integrin αVβ5 = integrin αVβ5 (UniProt P06756)
integrin αVβ3 = integrin αVβ3 (UniProt P06756)
[4] = target: collagen I (rat tail) (rat) (UniProt P02454)
[5] = target: vitronectin (human plasma) (human)
integrin α8β1 = integrin α8β1 (UniProt P53708)
integrin α5β1 = integrin α5β1 (UniProt P08648)
integrin α5β1, sequence (P08648 42-1049, chain 1 of 2): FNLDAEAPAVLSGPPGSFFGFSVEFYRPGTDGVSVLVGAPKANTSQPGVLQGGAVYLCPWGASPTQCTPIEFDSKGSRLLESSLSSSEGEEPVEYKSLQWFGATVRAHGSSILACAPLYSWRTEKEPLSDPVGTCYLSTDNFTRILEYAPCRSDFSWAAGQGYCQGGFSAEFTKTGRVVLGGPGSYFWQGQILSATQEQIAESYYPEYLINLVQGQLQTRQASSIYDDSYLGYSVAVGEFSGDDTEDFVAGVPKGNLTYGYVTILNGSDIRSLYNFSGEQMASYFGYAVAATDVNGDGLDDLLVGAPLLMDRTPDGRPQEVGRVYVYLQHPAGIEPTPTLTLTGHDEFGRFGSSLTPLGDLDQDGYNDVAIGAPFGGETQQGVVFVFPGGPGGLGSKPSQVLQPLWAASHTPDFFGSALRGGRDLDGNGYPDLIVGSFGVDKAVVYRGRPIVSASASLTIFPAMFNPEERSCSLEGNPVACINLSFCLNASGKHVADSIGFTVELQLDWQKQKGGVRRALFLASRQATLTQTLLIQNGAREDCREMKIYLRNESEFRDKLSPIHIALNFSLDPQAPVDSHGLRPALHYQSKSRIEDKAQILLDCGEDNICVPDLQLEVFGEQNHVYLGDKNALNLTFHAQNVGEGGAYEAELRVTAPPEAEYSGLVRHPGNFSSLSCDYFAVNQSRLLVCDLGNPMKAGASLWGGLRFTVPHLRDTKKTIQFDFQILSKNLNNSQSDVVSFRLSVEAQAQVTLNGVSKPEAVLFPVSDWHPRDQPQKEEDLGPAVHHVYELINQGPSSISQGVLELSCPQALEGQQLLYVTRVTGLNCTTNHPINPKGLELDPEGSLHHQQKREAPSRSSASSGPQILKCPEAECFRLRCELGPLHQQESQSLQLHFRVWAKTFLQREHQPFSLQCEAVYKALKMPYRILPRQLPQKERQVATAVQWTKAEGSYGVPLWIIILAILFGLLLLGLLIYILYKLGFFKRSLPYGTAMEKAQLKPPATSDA
integrin α5β1, sequence (P05556 21-728, chain 2 of 2, further chain): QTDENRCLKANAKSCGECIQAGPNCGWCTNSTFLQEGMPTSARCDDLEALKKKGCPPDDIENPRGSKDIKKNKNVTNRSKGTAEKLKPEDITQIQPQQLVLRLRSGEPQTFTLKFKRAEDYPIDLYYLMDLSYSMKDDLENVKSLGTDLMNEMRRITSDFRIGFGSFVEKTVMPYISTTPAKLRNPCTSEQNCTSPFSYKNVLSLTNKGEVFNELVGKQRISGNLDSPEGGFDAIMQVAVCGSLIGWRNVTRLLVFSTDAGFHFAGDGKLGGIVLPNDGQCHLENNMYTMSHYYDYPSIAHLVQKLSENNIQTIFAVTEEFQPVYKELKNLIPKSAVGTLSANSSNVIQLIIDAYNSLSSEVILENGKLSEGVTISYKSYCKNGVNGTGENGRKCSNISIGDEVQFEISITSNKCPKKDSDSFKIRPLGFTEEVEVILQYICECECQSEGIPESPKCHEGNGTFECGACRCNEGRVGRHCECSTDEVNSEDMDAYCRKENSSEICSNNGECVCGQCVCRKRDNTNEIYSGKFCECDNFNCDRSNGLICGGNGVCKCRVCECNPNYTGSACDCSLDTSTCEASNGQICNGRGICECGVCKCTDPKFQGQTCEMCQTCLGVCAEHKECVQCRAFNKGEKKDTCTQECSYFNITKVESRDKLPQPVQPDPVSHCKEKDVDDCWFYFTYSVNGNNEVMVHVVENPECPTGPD

integrin αVβ3, sequence (P06756 31-1048, chain 1 of 2): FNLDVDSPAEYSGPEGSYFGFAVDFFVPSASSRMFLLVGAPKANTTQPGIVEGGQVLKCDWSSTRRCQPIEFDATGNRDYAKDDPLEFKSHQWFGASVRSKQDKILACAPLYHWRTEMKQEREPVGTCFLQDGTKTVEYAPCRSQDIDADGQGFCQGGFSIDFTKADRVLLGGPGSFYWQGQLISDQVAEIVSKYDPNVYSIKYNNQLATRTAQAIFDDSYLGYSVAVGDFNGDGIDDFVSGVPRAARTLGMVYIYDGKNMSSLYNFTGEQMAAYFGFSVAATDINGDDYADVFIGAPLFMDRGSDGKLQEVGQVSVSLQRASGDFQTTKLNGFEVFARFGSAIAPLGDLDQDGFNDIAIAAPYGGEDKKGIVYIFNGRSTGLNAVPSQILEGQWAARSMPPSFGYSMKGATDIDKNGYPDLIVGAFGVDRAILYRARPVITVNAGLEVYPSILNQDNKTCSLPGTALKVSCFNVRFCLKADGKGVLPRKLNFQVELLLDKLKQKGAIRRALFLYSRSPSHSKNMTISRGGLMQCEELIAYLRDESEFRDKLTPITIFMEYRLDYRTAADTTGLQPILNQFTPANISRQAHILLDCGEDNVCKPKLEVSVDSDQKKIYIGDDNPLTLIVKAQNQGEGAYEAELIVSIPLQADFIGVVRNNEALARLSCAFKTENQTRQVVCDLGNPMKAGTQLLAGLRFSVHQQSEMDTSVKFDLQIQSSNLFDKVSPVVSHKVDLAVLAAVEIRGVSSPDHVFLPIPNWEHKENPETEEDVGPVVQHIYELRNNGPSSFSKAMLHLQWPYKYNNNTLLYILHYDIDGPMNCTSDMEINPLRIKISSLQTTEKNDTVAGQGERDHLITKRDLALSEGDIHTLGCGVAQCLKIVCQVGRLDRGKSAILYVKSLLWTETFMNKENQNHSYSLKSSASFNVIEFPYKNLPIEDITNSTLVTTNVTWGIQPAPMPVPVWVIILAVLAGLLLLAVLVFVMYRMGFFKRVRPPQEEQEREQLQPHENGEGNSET
integrin αVβ3, sequence (P05106 27-718, chain 2 of 2, further chain): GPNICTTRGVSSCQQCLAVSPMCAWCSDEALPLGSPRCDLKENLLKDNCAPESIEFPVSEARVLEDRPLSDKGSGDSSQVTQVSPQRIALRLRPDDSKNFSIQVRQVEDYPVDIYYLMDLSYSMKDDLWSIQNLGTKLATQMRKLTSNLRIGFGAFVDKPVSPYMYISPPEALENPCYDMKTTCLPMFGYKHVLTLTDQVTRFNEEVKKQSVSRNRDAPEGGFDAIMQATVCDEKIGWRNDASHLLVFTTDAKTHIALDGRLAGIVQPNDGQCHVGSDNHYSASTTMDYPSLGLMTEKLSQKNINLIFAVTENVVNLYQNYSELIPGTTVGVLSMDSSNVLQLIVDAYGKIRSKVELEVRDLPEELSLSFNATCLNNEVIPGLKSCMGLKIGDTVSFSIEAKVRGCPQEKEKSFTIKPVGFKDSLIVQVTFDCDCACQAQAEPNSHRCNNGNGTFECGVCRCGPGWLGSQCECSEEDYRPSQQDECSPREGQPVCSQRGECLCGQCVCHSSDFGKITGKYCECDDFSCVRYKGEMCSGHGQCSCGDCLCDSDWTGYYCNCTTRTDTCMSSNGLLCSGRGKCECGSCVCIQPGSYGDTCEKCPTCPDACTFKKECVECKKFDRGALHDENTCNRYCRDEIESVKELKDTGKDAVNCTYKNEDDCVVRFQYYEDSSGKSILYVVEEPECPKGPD
integrin αVβ1, sequence (P06756 31-1048, chain 1 of 2): as the sequence (P06756 31-1048, chain 1 of 2) above
integrin αVβ1, sequence (P05556 21-728, chain 2 of 2, further chain): as the sequence (P05556 21-728, chain 2 of 2, further chain) above
integrin αVβ6, sequence (P06756 31-1048, chain 1 of 2): as the sequence (P06756 31-1048, chain 1 of 2) above
integrin αVβ6, sequence (P18564 22-709, chain 2 of 2, further chain): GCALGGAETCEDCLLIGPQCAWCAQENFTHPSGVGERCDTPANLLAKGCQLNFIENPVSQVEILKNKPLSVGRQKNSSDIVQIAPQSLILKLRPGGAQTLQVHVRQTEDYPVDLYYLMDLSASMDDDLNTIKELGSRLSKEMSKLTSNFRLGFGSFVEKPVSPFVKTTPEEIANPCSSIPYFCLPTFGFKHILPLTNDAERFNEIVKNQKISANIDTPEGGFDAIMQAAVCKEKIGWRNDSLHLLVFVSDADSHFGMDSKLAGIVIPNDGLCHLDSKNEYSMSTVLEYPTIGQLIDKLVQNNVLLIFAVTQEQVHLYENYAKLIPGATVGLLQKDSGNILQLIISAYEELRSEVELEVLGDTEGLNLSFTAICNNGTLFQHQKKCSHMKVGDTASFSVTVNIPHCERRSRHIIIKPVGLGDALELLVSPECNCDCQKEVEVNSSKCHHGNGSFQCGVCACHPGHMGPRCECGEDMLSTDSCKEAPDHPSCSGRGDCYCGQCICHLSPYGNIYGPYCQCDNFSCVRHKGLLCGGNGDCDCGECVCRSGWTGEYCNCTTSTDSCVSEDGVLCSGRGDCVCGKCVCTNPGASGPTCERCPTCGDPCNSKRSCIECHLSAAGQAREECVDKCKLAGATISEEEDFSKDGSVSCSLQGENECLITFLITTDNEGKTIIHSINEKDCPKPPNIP
integrin αVβ5, sequence (P06756 31-1048, chain 1 of 2): as the sequence (P06756 31-1048, chain 1 of 2) above
integrin αVβ5, sequence (P18084 24-719, chain 2 of 2, further chain): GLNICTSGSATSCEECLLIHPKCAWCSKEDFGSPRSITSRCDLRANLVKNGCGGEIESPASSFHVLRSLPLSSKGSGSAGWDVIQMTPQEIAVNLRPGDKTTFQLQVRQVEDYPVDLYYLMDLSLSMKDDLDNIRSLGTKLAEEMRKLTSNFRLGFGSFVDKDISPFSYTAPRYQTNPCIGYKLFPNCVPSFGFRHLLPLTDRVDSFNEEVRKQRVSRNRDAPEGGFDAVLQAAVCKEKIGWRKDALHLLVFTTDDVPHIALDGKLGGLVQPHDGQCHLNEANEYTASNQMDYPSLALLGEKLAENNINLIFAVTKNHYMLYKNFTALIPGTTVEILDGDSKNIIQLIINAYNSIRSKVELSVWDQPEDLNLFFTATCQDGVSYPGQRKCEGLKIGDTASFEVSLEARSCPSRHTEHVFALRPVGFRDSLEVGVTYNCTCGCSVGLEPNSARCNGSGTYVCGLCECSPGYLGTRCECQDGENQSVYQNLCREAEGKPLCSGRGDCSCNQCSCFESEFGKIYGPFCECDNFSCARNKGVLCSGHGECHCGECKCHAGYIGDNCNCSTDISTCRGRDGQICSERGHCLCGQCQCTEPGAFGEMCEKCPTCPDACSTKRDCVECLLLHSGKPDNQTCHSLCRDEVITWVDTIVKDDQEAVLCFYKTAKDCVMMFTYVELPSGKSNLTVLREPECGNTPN

Substance | Kd [1] | Kd [2] | Kd (integrin αVβ6) | Kd (integrin αVβ1) | Kd [3] | Kd (integrin αVβ5) | Kd (integrin αVβ3) | Kd [4] | Kd [5] | Kd (integrin α8β1) | Kd (integrin α5β1)
recombinant LIC11051 (rLIC11051), leucine-rich repeat protein of Leptospira interrogans serovar Copenhageni (natural protein) | 42.6 nM |  |  |  |  |  |  |  |  |  | 
recombinant LIC11505 (rLIC11505), leucine-rich repeat protein of Leptospira interrogans serovar Copenhageni (natural protein) | 24.2 nM | 51.1 nM | 74.9 nM | 134 nM | 20.1 nM | 109 nM | 152 nM | 80 nM | 64.8 nM | 191 nM | 73.4 nM
